The text below walks through data of patent US20110059095A1.

Where two headings read alike, the source gives them in different places. A value given as a limit tells only on which side of the number the result lay.

The Kd is the equilibrium constant for the complex coming apart.

The target of assay [1] is full length human PAR-2 (human) (UniProt P55085). As to the kind of experiment: cell-based or functional assay.
The target of assay [2] is full length mouse PAR-2 (mouse) (UniProt P55086). As to the kind of experiment: cell-based or functional assay.
The target in another assay is monkey PAR-2 (monkey). As to the kind of experiment: cell-based or functional assay.
In assay [3] the target is C-terminal biotinylated human PAR-2 14-mer peptide SEQ ID NO:884 (…, wild-type) (human). The assay can be described thus: BLI Exp2.
The target of assay [4] is C-terminal biotinylated human PAR-2 14-mer peptide SEQ ID NO:885 (Val-42 to Ala) (human). As to the kind of experiment: BLI Exp2.
The target of assay [5] is C-terminal biotinylated human PAR-2 14-mer peptide SEQ ID NO:886 (Asp-43 to Ala) (human). The assay can be described thus: BLI Exp2.
Assay [6] addresses C-terminal biotinylated human PAR-2 14-mer peptide SEQ ID NO:887 (Val-42 and Asp-43 to Ala) (human). The assay can be described thus: BLI Exp2.
Assay [7] has as its target Peptide B (human PAR-2), unbiotinylated (Human). As to the kind of experiment: SPR, antibody captured.
Assay [8] addresses T1, Peptide B (human PAR-2), C-terminal biotinylated (Human).
T1 sequence (peptide, C-terminal biotin via G4S linker): SLIGKVDGTSHVTGGGGGS
The assay can be described thus: SPR, peptide immobilized. (In general: Surface plasmon resonance follows binding to a sensor surface in real time, without labels.)

Assay [9] deals with T2, Peptide B (human PAR-2), N-terminal biotinylated (Human).
T2 sequence (peptide, N-terminal biotin via G4S linker): GGGGSSLIGKVDGTSHVTG
The assay can be described thus: SPR, peptide immobilized.

Assay [10] addresses T1, Peptide B (human PAR-2), C-terminal biotinylated (Human). As to the kind of experiment: SPR, peptide immobilized. This is another data set of the same source.
Assay [11] deals with full length human PAR-2 (human) (UniProt P55085). As to the kind of experiment: cell ELISA, 10 ug/ml antibody. A general note: In an ELISA, binding on a coated surface is turned into a signal by an enzyme label.

full length human PAR-2 (human), sequence (P55085 26-397 G138A limits assumed): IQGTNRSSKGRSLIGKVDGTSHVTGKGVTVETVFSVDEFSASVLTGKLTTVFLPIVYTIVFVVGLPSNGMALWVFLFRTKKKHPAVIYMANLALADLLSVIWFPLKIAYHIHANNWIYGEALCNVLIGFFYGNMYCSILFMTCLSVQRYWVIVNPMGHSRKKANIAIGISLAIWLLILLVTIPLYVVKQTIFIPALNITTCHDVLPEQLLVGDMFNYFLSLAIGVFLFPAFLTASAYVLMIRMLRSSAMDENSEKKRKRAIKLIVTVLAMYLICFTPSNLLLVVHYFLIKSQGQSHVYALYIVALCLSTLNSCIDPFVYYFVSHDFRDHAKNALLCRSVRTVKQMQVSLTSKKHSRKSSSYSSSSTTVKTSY
C-terminal biotinylated human PAR-2 14-mer peptide SEQ ID NO:886 (Asp-43 to Ala) (human), sequence (peptide, as listed by the source): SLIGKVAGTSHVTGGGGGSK
C-terminal biotinylated human PAR-2 14-mer peptide SEQ ID NO:884 (…, wild-type) (human), sequence (peptide, as listed by the source): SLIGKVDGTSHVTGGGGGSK
C-terminal biotinylated human PAR-2 14-mer peptide SEQ ID NO:885 (Val-42 to Ala) (human), sequence (peptide, as listed by the source): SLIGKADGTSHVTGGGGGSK
C-terminal biotinylated human PAR-2 14-mer peptide SEQ ID NO:887 (Val-42 and Asp-43 to Ala) (human), sequence (peptide, as listed by the source): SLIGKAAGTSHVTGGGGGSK
full length mouse PAR-2 (mouse), sequence (P55086 other isoform, or with tags, fused parts or gaps limits assumed): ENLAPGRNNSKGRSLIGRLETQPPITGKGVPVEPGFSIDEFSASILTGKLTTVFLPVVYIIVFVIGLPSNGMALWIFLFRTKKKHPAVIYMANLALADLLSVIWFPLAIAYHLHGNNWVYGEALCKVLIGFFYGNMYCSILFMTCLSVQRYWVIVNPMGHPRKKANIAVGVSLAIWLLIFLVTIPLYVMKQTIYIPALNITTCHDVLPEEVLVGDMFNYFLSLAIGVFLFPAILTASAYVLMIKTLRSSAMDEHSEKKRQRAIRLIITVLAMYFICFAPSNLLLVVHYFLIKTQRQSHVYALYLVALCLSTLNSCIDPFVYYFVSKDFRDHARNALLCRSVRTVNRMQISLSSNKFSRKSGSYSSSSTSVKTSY
Human Kallikrein 5, sequence (Q9Y337 67-293 limits assumed): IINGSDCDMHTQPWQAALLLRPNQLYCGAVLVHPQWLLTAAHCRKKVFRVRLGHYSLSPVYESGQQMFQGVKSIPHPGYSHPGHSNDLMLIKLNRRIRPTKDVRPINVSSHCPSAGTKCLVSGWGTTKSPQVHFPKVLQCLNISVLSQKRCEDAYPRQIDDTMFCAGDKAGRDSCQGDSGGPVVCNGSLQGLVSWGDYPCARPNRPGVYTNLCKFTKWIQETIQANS

For the substance “Bovine Factor Xa (from UniProt P00743 41-492) (enzyme)”, the figures for the EC50 of activator, NF-kB-luciferase (in assay [1]; in [2]; with monkey PAR-2 (monkey)) were 27.2 nM, 46.3 nM and 58.2 nM, respectively.
As to “Comparator 2, antibody having the heavy and light chain variable regions of the antibody referred to as Sam-11 (Molino et al. 1998)”, the % Rel Binding in assay [3] was found to be 100%; in assay [4], 120%; in [5] it was 88%; in assay [6] it was 87%. The % Rel T1/2 in assay [3] was determined as 100%; in [4], 159%; in [5], 27%; in assay [6], 27%.
In assay [1], Tryptase (Table 22) (enzyme) yielded an EC50 of activator, NF-kB-luciferase of 61.1 nM.
As to “Human Factor Xa (from UniProt P00742 41-488) (enzyme)”, the EC50 of activator, NF-kB-luciferase came to 46.3 nM in [1] and 78.7 nM in assay [2].
In the case of Human Pancreatic Trypsin (enzyme), the EC50 of activator, NF-kB-luciferase with monkey PAR-2 (monkey) worked out at 2.4 nM.
“Human Kallikrein 5 (from UniProt Q9Y337 67-293) (enzyme)”: the values for the EC50 of activator, NF-kB-luciferase (in assay [1]; with monkey PAR-2 (monkey)) were 28 nM and 16.8 nM, respectively.
With “Sam11, commercially available mouse monoclonal antibody that binds human PAR-2 (Santa Cruz Biotechnology)”, the Kd is 149 nM in assay [7], 0.99 nM in assay [8], 0.279 nM in assay [9] and 0.935 nM in assay [10]. For the same substance, the T1/2 came to 0.1 min in assay [7], 19 min in assay [8], 32 min in assay [9] and 14 min in assay [10]. Besides, the A450 ratio (293/D9/hPAR-2rec to 293/D9 cells) in assay [11] was determined as 1.49.
Consider “Non-Specific Control (non-PAR-2 specific control antibody)”, for which the IC50, calcium mobilization FLIPR, 100 nM Trypsin in assay [1] is above 1000 nM.
